Assay results taken from publication PMC4837482, “The complex binding mode of the peptide hormone H2 relaxin to its receptor RXFP1” (Nature Communications, 2016).
Numbering of substitutions follows the chain as printed.

What was measured:
Test in all cases: cAMP activity assay (pCRE β-galactosidase reporter), transfected HEK293T cells
Assay type in all cases: cell-based
RXFP1 G45W46-AA = target: T1, RXFP1 G45W46-AA (Homo sapiens, UniProt Q9HBX9, G67A/W68A)
T1 construct: transiently transfected human embryonic kidney (HEK) 293T cells expressing full-length RXFP1 and mutants; expressed in transfected cells; host or cells: HEK293T
T1 sequence (Q9HBX9 23-757 G67A/W68A limits assumed): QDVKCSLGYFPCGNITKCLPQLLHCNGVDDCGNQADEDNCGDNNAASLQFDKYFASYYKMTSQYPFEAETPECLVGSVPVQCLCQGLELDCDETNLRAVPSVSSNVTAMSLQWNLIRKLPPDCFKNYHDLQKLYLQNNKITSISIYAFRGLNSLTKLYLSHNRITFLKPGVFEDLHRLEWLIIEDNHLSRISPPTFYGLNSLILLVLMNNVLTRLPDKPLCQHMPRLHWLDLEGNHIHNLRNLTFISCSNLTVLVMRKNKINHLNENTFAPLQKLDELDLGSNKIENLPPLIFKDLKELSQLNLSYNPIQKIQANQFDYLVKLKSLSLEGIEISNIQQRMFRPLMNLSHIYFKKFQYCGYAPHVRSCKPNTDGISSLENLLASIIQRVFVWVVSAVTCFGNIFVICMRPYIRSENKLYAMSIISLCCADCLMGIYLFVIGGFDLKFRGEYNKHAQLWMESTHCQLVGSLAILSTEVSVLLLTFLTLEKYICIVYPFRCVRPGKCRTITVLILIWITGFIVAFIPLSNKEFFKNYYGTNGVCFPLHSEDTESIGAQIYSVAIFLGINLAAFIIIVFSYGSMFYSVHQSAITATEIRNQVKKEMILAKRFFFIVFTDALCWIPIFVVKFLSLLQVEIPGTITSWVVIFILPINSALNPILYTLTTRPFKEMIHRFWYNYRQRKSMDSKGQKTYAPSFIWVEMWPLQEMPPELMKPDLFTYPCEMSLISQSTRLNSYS
In short: (§1)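 H2 relaxin dilutions in minimal media with 1% DMSO; 5 μM Forskolin as positive control, media/1% DMSO as negative. After freezing at −80 °C, cells lysed in pH 8.0 phosphate buffers and chlorophenol red-β-D-galactopyranoside added; absorbance read at 570 nm. Responses given as % of 5 μM Forskolin maximum.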

RXFP1 Y57A = target: T2, RXFP1 Y57A (Homo sapiens, UniProt Q9HBX9, Y79A); settings: construct Y57A, ±s.e.m.
T2 construct: cells expressing full-length RXFP1 and mutants; expressed in transfected cells; host or cells: HEK293T
T2 sequence (Q9HBX9 23-757 Y79A limits assumed): T1 sequence (Q9HBX9 23-757 G67A/W68A limits assumed) with A45G, A46W, Y57A
In short: as §1

RXFP1 F54A = target: T3, RXFP1 F54A (Homo sapiens, UniProt Q9HBX9, F76A); settings: construct F54A, ±s.e.m.
T3 construct: cells expressing full-length RXFP1 and mutants; expressed in transfected cells; host or cells: HEK293T
T3 sequence (Q9HBX9 23-757 F76A limits assumed): T1 sequence (Q9HBX9 23-757 G67A/W68A limits assumed) with A45G, A46W, F54A
In short: as §1

[1] = percentage of maximum response to 5 μM Forskolin

Substance: H2 relaxin: two-chain 6-kDa peptide hormone structurally related to insulin; recombinant human gene-2 H2 relaxin provided by Corthera
- H2 relaxin-stimulated cAMP activity (RXFP1 G45W46-AA; G45A/W46A RXFP1): virtually unable to signal
- H2 relaxin pEC50 (RXFP1 G45W46-AA; construct G45W46-AA, cAMP reporter): <6 (3)
- H2 relaxin pEC50 (RXFP1 Y57A; cAMP reporter): 10.93±0.10 (5)
- H2 relaxin Emax (RXFP1 Y57A; [1]): 126.7±8.46 (5) %
- H2 relaxin pEC50 (RXFP1 F54A; cAMP reporter): 10.23±0.13 (4)
- H2 relaxin Emax (RXFP1 F54A; [1]): 104.89±10.48 (4) %
